In the supplement of paper PMC9112550, “Optimization of the antimicrobial peptide Bac7 by deep mutational scanning” (BMC Biology, 2022):

Tested on: Escherichia coli TOP10
Assay: shrunken log2 fold change of peptide-encoding DNA abundance (4.5 h post-induction vs induction); higher = less antimicrobial activity (less host growth inhibition)
Details: time post-induction: 4.5 h; library: site-saturation at positions 5, 18, 19, 20
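Note: peptides expressed intracellularly from a pBAD plasmid library in pooled LB shake-flask culture, induced with 0.3% L-arabinose, DNA abundance read by NGS, three biological replicates, DESeq2 with apeglm shrinkage.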

| Sequence | shrunken log2 fold change |
| --- | --- |
| RRIRPRPPRLPRPRPRPIHKPRP | -0.561 |
| RRIRPRPPRLPRPRPRPIKDPRP | -0.763 |
| RRIRPRPPRLPRPRPRPIKMPRP | 0.0328 |
| RRIRPRPPRLPRPRPRPILDPRP | -0.0669 |
| RRIRPRPPRLPRPRPRPILQPRP | -0.224 |
| RRIRPRPPRLPRPRPRPINQPRP | -0.24 |
| RRIRPRPPRLPRPRPRPIQGPRP | -0.128 |
| RRIRPRPPRLPRPRPRPIQKPRP | 0.115 |
| RRIRPRPPRLPRPRPRPIQMPRP | -0.166 |
| RRIRPRPPRLPRPRPRPISKPRP | -0.306 |
| RRIRPRPPRLPRPRPRPITFPRP | -0.112 |
| RRIRPRPPRLPRPRPRPITLPRP | 0.0118 |
| RRIRPRPPRLPRPRPRPIWNPRP | -0.282 |
| RRIRPRPPRLPRPRPRPIYPPRP | -0.269 |
| RRIRPRPPRLPRPRPRPKAEPRP | 0.279 |
| RRIRPRPPRLPRPRPRPKAYPRP | -0.029 |
| RRIRPRPPRLPRPRPRPKCWPRP | 0.765 |
| RRIRPRPPRLPRPRPRPKEDPRP | 0.176 |
| RRIRPRPPRLPRPRPRPKEKPRP | 0.264 |
| RRIRPRPPRLPRPRPRPKEWPRP | -0.00152 |
| RRIRPRPPRLPRPRPRPKFAPRP | 0.409 |
| RRIRPRPPRLPRPRPRPKFNPRP | -0.404 |
| RRIRPRPPRLPRPRPRPKFPPRP | 0.119 |
| RRIRPRPPRLPRPRPRPKFQPRP | 0.103 |
| RRIRPRPPRLPRPRPRPKGEPRP | 0.125 |

| Sequence | shrunken log2 fold change |
| --- | --- |
| RRIRPRPPRLPRPRPRPKGKPRP | -0.135 |
| RRIRPRPPRLPRPRPRPKIRPRP | -0.137 |
| RRIRPRPPRLPRPRPRPKITPRP | -0.105 |
| RRIRPRPPRLPRPRPRPKKFPRP | 0.0281 |
| RRIRPRPPRLPRPRPRPKLHPRP | -0.00244 |
| RRIRPRPPRLPRPRPRPKMCPRP | 0.0196 |
| RRIRPRPPRLPRPRPRPKMPPRP | -0.0926 |
| RRIRPRPPRLPRPRPRPKPMPRP | 0.218 |
| RRIRPRPPRLPRPRPRPKPWPRP | 0.227 |
| RRIRPRPPRLPRPRPRPKQSPRP | 0.142 |
| RRIRPRPPRLPRPRPRPKSCPRP | 0.0347 |
| RRIRPRPPRLPRPRPRPKSIPRP | -0.352 |
| RRIRPRPPRLPRPRPRPKTFPRP | -0.322 |
| RRIRPRPPRLPRPRPRPKVKPRP | -0.236 |
| RRIRPRPPRLPRPRPRPKVTPRP | 0.0845 |
| RRIRPRPPRLPRPRPRPLAVPRP | 0.161 |
| RRIRPRPPRLPRPRPRPLCCPRP | -0.105 |
| RRIRPRPPRLPRPRPRPLDKPRP | -0.0324 |
| RRIRPRPPRLPRPRPRPLEMPRP | 0.0597 |
| RRIRPRPPRLPRPRPRPLFKPRP | -0.348 |
| RRIRPRPPRLPRPRPRPLHVPRP | -0.163 |
| RRIRPRPPRLPRPRPRPLHYPRP | -0.11 |
| RRIRPRPPRLPRPRPRPLICPRP | -0.164 |
| RRIRPRPPRLPRPRPRPLIHPRP | -0.472 |
| RRIRPRPPRLPRPRPRPLILPRP | -0.559 |

| Sequence | shrunken log2 fold change |
| --- | --- |
| RRIRPRPPRLPRPRPRPLKAPRP | -0.0747 |
| RRIRPRPPRLPRPRPRPLKHPRP | -0.221 |
| RRIRPRPPRLPRPRPRPLKSPRP | -0.157 |
| RRIRPRPPRLPRPRPRPLLHPRP | 0.0277 |
| RRIRPRPPRLPRPRPRPLNCPRP | -0.227 |
| RRIRPRPPRLPRPRPRPLNKPRP | -0.55 |
| RRIRPRPPRLPRPRPRPLPAPRP | 0.864 |
| RRIRPRPPRLPRPRPRPLPDPRP | 0.179 |
| RRIRPRPPRLPRPRPRPLPFPRP | -0.75 |
| RRIRPRPPRLPRPRPRPLREPRP | 0.783 |
| RRIRPRPPRLPRPRPRPLSWPRP | 0.238 |
| RRIRPRPPRLPRPRPRPLSYPRP | 0.0626 |
| RRIRPRPPRLPRPRPRPLTQPRP | 0.0664 |
| RRIRPRPPRLPRPRPRPLTTPRP | 0.135 |
| RRIRPRPPRLPRPRPRPLVAPRP | 0.101 |
| RRIRPRPPRLPRPRPRPLVRPRP | 0.138 |
| RRIRPRPPRLPRPRPRPLWAPRP | 0.343 |
| RRIRPRPPRLPRPRPRPLWDPRP | 0.00439 |
| RRIRPRPPRLPRPRPRPLWPPRP | 0.325 |
| RRIRPRPPRLPRPRPRPLYCPRP | -0.548 |
| RRIRPRPPRLPRPRPRPMAKPRP | 0.646 |
| RRIRPRPPRLPRPRPRPMCCPRP | -0.0731 |
| RRIRPRPPRLPRPRPRPMCLPRP | -0.0489 |
| RRIRPRPPRLPRPRPRPMHPPRP | 0.324 |
| RRIRPRPPRLPRPRPRPMHVPRP | 0.038 |

| Sequence | shrunken log2 fold change |
| --- | --- |
| RRIRPRPPRLPRPRPRPMIWPRP | -0.136 |
| RRIRPRPPRLPRPRPRPMKTPRP | -0.0446 |
| RRIRPRPPRLPRPRPRPMLCPRP | 0.122 |
| RRIRPRPPRLPRPRPRPMLNPRP | -0.164 |
| RRIRPRPPRLPRPRPRPMLVPRP | 0.0962 |
| RRIRPRPPRLPRPRPRPMMRPRP | 0.224 |
| RRIRPRPPRLPRPRPRPMMVPRP | -0.0739 |
| RRIRPRPPRLPRPRPRPMNLPRP | 0.00249 |
| RRIRPRPPRLPRPRPRPMPMPRP | -0.301 |
| RRIRPRPPRLPRPRPRPMQWPRP | 0.169 |
| RRIRPRPPRLPRPRPRPMQYPRP | -0.0088 |
| RRIRPRPPRLPRPRPRPMSFPRP | -0.0289 |
| RRIRPRPPRLPRPRPRPMSMPRP | -0.11 |
| RRIRPRPPRLPRPRPRPMWGPRP | 0.0327 |
| RRIRPRPPRLPRPRPRPMYAPRP | -0.302 |
| RRIRPRPPRLPRPRPRPNCFPRP | -0.0261 |
| RRIRPRPPRLPRPRPRPNCHPRP | 0.0382 |
| RRIRPRPPRLPRPRPRPNCIPRP | -0.134 |
| RRIRPRPPRLPRPRPRPNECPRP | -0.217 |
| RRIRPRPPRLPRPRPRPNGAPRP | 0.327 |
| RRIRPRPPRLPRPRPRPNGDPRP | -0.0945 |
| RRIRPRPPRLPRPRPRPNGYPRP | -0.224 |
| RRIRPRPPRLPRPRPRPNHFPRP | -0.592 |
| RRIRPRPPRLPRPRPRPNIFPRP | -0.189 |
| RRIRPRPPRLPRPRPRPNIYPRP | -0.69 |

| Sequence | shrunken log2 fold change |
| --- | --- |
| RRIRPRPPRLPRPRPRPNKFPRP | -0.173 |
| RRIRPRPPRLPRPRPRPNKHPRP | -0.374 |
| RRIRPRPPRLPRPRPRPNMTPRP | -0.13 |
| RRIRPRPPRLPRPRPRPNSCPRP | -0.241 |
| RRIRPRPPRLPRPRPRPNSPPRP | -0.255 |
| RRIRPRPPRLPRPRPRPNTDPRP | -0.374 |
| RRIRPRPPRLPRPRPRPNTKPRP | 0.0992 |
| RRIRPRPPRLPRPRPRPNVNPRP | -0.46 |
| RRIRPRPPRLPRPRPRPNWDPRP | 0.0377 |
| RRIRPRPPRLPRPRPRPNWNPRP | -0.184 |
| RRIRPRPPRLPRPRPRPPACPRP | 0.207 |
| RRIRPRPPRLPRPRPRPPAKPRP | 0.657 |
| RRIRPRPPRLPRPRPRPPAPPRP | 0.629 |
| RRIRPRPPRLPRPRPRPPARPRP | 0.748 |
| RRIRPRPPRLPRPRPRPPCPPRP | 0.294 |
| RRIRPRPPRLPRPRPRPPDTPRP | 0.148 |
| RRIRPRPPRLPRPRPRPPEDPRP | 0.695 |
| RRIRPRPPRLPRPRPRPPEGPRP | 0.436 |
| RRIRPRPPRLPRPRPRPPESPRP | 0.841 |
| RRIRPRPPRLPRPRPRPPGRPRP | 0.567 |
| RRIRPRPPRLPRPRPRPPINPRP | -0.158 |
| RRIRPRPPRLPRPRPRPPIQPRP | 0.00728 |
| RRIRPRPPRLPRPRPRPPLHPRP | 0.21 |
| RRIRPRPPRLPRPRPRPPMMPRP | 0.0805 |
| RRIRPRPPRLPRPRPRPPMRPRP | 0.833 |

| Sequence | shrunken log2 fold change |
| --- | --- |
| RRIRPRPPRLPRPRPRPPQGPRP | 0.686 |
| RRIRPRPPRLPRPRPRPPQTPRP | 0.362 |
| RRIRPRPPRLPRPRPRPPRRPRP | 0.638 |
| RRIRPRPPRLPRPRPRPPSTPRP | 0.123 |
| RRIRPRPPRLPRPRPRPPVNPRP | 0.15 |
| RRIRPRPPRLPRPRPRPPWDPRP | 0.312 |
| RRIRPRPPRLPRPRPRPQADPRP | 0.154 |
| RRIRPRPPRLPRPRPRPQAHPRP | -0.243 |
| RRIRPRPPRLPRPRPRPQCAPRP | 0.167 |
| RRIRPRPPRLPRPRPRPQCFPRP | 0.185 |
| RRIRPRPPRLPRPRPRPQCMPRP | -0.312 |
| RRIRPRPPRLPRPRPRPQDEPRP | 0.0996 |
| RRIRPRPPRLPRPRPRPQDTPRP | -0.229 |
| RRIRPRPPRLPRPRPRPQDWPRP | 0.0908 |
| RRIRPRPPRLPRPRPRPQEKPRP | -0.0282 |
| RRIRPRPPRLPRPRPRPQEQPRP | -0.0215 |
| RRIRPRPPRLPRPRPRPQFKPRP | 0.0824 |
| RRIRPRPPRLPRPRPRPQGCPRP | -0.0849 |
| RRIRPRPPRLPRPRPRPQGYPRP | -0.0854 |
| RRIRPRPPRLPRPRPRPQHRPRP | 0.162 |
| RRIRPRPPRLPRPRPRPQIHPRP | -0.536 |
| RRIRPRPPRLPRPRPRPQIKPRP | -0.282 |
| RRIRPRPPRLPRPRPRPQILPRP | -0.172 |
| RRIRPRPPRLPRPRPRPQKHPRP | 0.865 |
| RRIRPRPPRLPRPRPRPQLDPRP | 0.314 |
